How the values were obtained:
[1] = biological target: T1, N1 binding to cell surface expressed hJ1 (Homo sapiens, UniProt P78504); assay: Notch binding blocking assay (FACS): N1 EGF11-13 beads staining human J1-expressing cells; set-up: key: +: Complete blocking; X: No blocking
T1 construct: cell expressed full length human J1 (hJ1; HEK293 transfectants); expressed in transfected cells; host or cells: HEK293
In short: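 E. coli-expressed, refolded human N1 EGF11-13 (411-526), biotinylated on avidin-coated fluorescent beads, stained human J1-transfected HEK293 cells with hybridoma supernatant or purified antibody diluted in HBSS/10% FCS. Purified mAbs titrated in dilution series; bead binding read by flow cytometry.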

[2] = test system: J1-induced Notch signalling; assay: Luciferase assay, LS174T RBPJ reporter stimulated with J1 protein; format: cell-based, human; conditions: humanised/chimeric mAbs 10 μg/ml, NE3-Fc; DBZ control
Protocol: FIG. 9. […] (A) The colorectal cancer cell line LS174T expressing luciferase under the control of Notch co-factor RBPJ was stimulated with mammalian cell-expressed soluble J1 proteins (NE3-Fc and NE12-Fc) or a control protein in the presence of J1 mAbs (10 μg/ml), and luciferase activity was measured. […] (C) Breast cancer MDA-MB-231 cells were cultured with J1 mAbs. The expression level of the Notch target gene HES1 was measured by qPCR using β2m as the control gene. In all experiments the γ-secretase inhibitor DBZ was used as a positive control for pan Notch inhibition and a control mAb (IgG2b or IgG1) or no treatment (NT) were negative controls.
FIG. 20. Inhibition of human Jagged 1/Notch signalling by humanised and de-immunised J1-mAbs in vitro. The colorectal cancer cell line LS174T expressing luciferase under the control of Notch co-factor RbPJ was stimulated with mammalian cell-expressed recombinant J1 protein (NE3-Fc protein, right bar for each treatment) or a control protein (left bar) in the presence of J1 mAbs (10 μg/ml), and luciferase activity was measured. The parental murine monoclonal antibody (Mo), Murine IgG1, DMSO and DBZ were used as controls.
Having established that the J1 mAbs were able to block the binding of the J1 ligand to its receptor N1 their effect on the activity of the Notch signalling pathway was investigated. The human colorectal cancer cell line LS174T, stably expressing a luciferase reporter gene under control of Notch co-factor RBPJ, was stimulated with two forms of immobilised J1 protein: N-terminus to EGF3 and N-terminus to EGF12. […] Importantly, the best two J1 mAbs (J1-65D and J1-183D) were also tested against other Notch ligands in order to verify ligand specificity.
Prior to experiment, clear bottom 96-well plates (CELLSTAR) wells were coated with either J1-ECD fragments (NE3-Fc and NE12-Fc), other Notch-ligands (J2 or DLL4; both from R&D) or control protein (mlgG2b) at the concentration of 5 μg/ml in 0.1% BSA-PBS (overnight incubation at 4° C.). LS174T colorectal cancer cells, expressing the luciferase gene under control of the Notch cofactor RbPJ, were then plated (4×10^4 cells/well) in the presence of different mAbs (10 μg/ml) or DBZ (100 nM). Luciferase activity was then quantified 24 hours later using the Bright-Glo Luciferase Assay System (Promega).

MDA-MB-231 spheroids = assay: Spheroid assay (3-D growth), MDA-MB-231; format: cell-based, human; conditions: humanised variants 5 μg/ml
Excerpt: Similar findings were also reported for the Merck anti-N1 mAbs when tested on the LS-1034 cell line. As cell-cell contact is required to activate Notch signalling a spheroid-based 3-D growth model was used to test the ability of the J1 mAbs to block tumour growth. Furthermore, the 3-D model better mimics in vivo conditions including hypoxia and acidosis, allowing evaluation of the mAbs effect in a more realistic setting. Spheroids were generated from MDA-MB-231 breast cancer cells and the ability of different concentrations of the J1-65D mAb to inhibit their growth was evaluated.
Cells were harvested and resuspended in 2.5% Matrigel (BD)-complete DMEM medium. Cell suspension was plated on low-adherence 96-well plates (Corning) (200 μl/well) and spheroids, of approximately fixed cell number (5×10^3 cells for MDA-MB-231 and MDA-MB-468 cell lines; 2×10^3 for MCF7 cells) were then generated by spinning plates at 1800 rpm for 10 minutes. The following day, pictures of the spheroids were taken (day 1) and treatments were added (mAbs were used at 10 μg/ml [5 μg/ml for humanised antibodies] while DBZ was used at the concentration of 100 nM). In some experiments Paclitaxel (1 nM) and Doxorubicin (20 nM) were used in combination with J1-65D mAb treatment. Every 2 days pictures were taken and half of the medium was replaced with fresh one containing mAb/drug. At the end of the experiment, spheroids were either lysed for RNA extraction, were processed and paraffin-embedded for immunohistochemical analysis or were dissociated by pipetting and trypsinization into single cell suspensions for FACS analysis. Spheroid size was evaluated by image analysis using ImageJ software.

[3] = Soluble aggregates of transiently expressed antibodies; format: physicochemical; conditions: Protein A purified antibody
Excerpt: The protein yield of these antibodies, their levels of soluble aggregates and their binding affinity to the immunogen (J1-DE3) are illustrated in (Table 6).

[4] = final antibody concentration 0.2 μg/ml
[5] = final antibody concentration 0.4 μg/ml
[6] = final antibody concentration 0.6 μg/ml
[7] = final antibody concentration 1.0 μg/ml

T1 sequence (P78504 34-1218): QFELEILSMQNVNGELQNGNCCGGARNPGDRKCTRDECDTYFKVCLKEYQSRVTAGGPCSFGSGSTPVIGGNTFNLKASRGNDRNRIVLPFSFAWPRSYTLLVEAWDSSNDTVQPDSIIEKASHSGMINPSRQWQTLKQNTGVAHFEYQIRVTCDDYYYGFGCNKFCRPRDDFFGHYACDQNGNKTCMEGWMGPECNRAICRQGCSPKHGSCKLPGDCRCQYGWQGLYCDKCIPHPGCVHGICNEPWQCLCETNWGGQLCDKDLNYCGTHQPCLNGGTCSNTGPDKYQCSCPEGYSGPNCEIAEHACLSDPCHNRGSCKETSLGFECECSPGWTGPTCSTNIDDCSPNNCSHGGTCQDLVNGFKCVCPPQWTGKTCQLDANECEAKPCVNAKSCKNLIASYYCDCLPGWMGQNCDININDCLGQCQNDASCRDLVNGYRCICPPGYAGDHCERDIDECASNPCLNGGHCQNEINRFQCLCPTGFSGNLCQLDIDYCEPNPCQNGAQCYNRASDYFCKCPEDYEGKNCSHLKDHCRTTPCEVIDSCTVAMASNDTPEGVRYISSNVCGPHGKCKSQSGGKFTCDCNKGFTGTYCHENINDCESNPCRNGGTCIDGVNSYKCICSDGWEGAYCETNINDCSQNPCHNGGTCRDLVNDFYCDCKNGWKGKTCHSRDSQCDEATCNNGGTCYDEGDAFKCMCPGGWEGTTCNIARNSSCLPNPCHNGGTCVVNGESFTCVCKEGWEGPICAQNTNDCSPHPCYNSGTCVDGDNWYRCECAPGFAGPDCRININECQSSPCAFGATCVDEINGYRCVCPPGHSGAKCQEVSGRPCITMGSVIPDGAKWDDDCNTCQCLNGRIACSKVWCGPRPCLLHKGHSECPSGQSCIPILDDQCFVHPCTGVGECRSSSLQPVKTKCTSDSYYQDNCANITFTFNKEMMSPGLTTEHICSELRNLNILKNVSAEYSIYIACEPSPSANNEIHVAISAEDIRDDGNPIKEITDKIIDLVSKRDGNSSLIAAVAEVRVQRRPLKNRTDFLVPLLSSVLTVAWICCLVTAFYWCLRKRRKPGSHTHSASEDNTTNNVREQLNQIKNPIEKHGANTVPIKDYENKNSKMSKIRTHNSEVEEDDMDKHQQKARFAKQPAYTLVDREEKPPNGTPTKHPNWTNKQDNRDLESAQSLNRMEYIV

| Blocking of Notch1 binding to cell surface Jagged 1 [1, 4] | Blocking of Notch1 binding to cell surface Jagged 1 [1, 5] | Blocking of Notch1 binding to cell surface Jagged 1 [1, 6] | Blocking of Notch1 binding to cell surface Jagged 1 [1, 7] | Molecule | inhibition of J1-induced luciferase activity [2] | spheroid growth inhibition (MDA-MB-231 spheroids) | % soluble aggregate [3] |
| --- | --- | --- | --- | --- | --- | --- | --- |
| X | + (Complete blocking) | + (Complete blocking) | + (Complete blocking) | J1-183D variant 1: humanised/de-immunised J1-183D: J1-183D_VL_1 + J1-183D_VH_1 (antibody, V domains shown) VH: QVQLVQSGAELKKPGASVKVSCKVSGYAFTDYAIHWIRQAPGQGLEWMGIINTYYGDSKYNQKFKDRVTMTVDKSTSTAYMELSSLRSEDTAVYYCARGYDGFAYWGQGTLVTVSSASTKGP VL: DIQMTQSPSSLSASVGDRVTITCRTSENIYSYLTWYQQKPGKAPKLLVYNAKILAAGVPSRFSGSGSGTDFTLTISSLQPEDFATYYCQHHYDIPWTFGGGTKLEIKRT | inhibited as effectively as by the parental murine mAb | most comparable efficacy to the original murine antibody | 3.65% |
| X | + (Complete blocking) | + (Complete blocking) | + (Complete blocking) | J1-183D variant 8: humanised/de-immunised J1-183D: J1-183D_VL_2 + J1-183D_VH_4 (antibody, V domains shown) VH: QVQLVQSGAEVKKPGASVKVSCKASGYTFTDYAIHWVRQAPGQGLEWMGIINTYYGDSKYAQKFQGRVTMTVDTSTSTAYMELSSLRSEDTAVYYCARGYDGFAYWGQGTLVTVSSASTKGP VL: DIQMTQSPSSLSASVGDRVTITCRTSENIYSYLTWYQQKPGKAPKLLIYNAKTLASGVPSRFSGSGSGTDFTLTISSLQPEDFATYYCQHHYDIPWTFGGGTKLEIKRT | inhibited as effectively as by the parental murine mAb | increasingly less effect | 0.93% |

The remaining lines, values behind:

| Molecule | Blocking of Notch1 binding to cell surface Jagged 1 [1, 4] | Blocking of Notch1 binding to cell surface Jagged 1 [1, 5] | Blocking of Notch1 binding to cell surface Jagged 1 [1, 6] | Blocking of Notch1 binding to cell surface Jagged 1 [1, 7] | inhibition of J1-induced luciferase activity [2] | spheroid growth inhibition (MDA-MB-231 spheroids) | % soluble aggregate [3] |
| --- | --- | --- | --- | --- | --- | --- | --- |
| J1-65D variant 4: humanised/de-immunised J1-65D: J1-65D_VL_1 + J1-65D_VH_4 (antibody, V domains shown) VH: QVQLVQSGAEVKKPGSSVKVSCKASGYTFTDYEMHWVRQAPGQGLEWMGAIQPGGGGTAYAQKFQGRVTITADKSTSTAYMELSSLRSEDTAVYYCTRRGYDDYPFAYWGQGTLVTVSSASTKGP VL: DIQMTQSPSSLSASVGDRVTITCRASGNIHNYLAWYQQKPGKAPKLLIYNAKTLADDVPSRFSGSGSGTDYTLTISSLQPEDFATYYCQHFWSAPWTFGGGTKLEIKRT | X | + (Complete blocking) | + (Complete blocking) | + (Complete blocking) | inhibited as effectively as by the parental murine mAb | slightly reduced ability to inhibit spheroid growth | 0% |
| J1-65D variant 8: humanised/de-immunised J1-65D: J1-65D_VL_2 + J1-65D_VH_4 (antibody, V domains shown) VH: QVQLVQSGAEVKKPGSSVKVSCKASGYTFTDYEMHWVRQAPGQGLEWMGAIQPGGGGTAYAQKFQGRVTITADKSTSTAYMELSSLRSEDTAVYYCTRRGYDDYPFAYWGQGTLVTVSSASTKGP VL: DIQMTQSPSSLSASVGDRVTITCRASGNIHNYLAWYQQKPGKAPKLLIYNAKTLADAVPSRFSGSGSGTDYTLTISSLQPEDFATYYCQHFWSAPWTFGGGTKLEIKRT | X | + (Complete blocking) | + (Complete blocking) | + (Complete blocking) | inhibited as effectively as by the parental murine mAb | slightly reduced ability to inhibit spheroid growth | 0% |
| J1-65D variant 12: humanised/de-immunised J1-65D: J1-65D_VL_3 + J1-65D_VH_4 (antibody, V domains shown) VH: QVQLVQSGAEVKKPGSSVKVSCKASGYTFTDYEMHWVRQAPGQGLEWMGAIQPGGGGTAYAQKFQGRVTITADKSTSTAYMELSSLRSEDTAVYYCTRRGYDDYPFAYWGQGTLVTVSSASTKGP VL: DIQMTQSPSSLSASVGDRVTITCRASGNIHNYLAWYQQKPGKAPKLLIYNAKTLADAVPSRFSGSGSGTDYTLTISSLQPEDFATYYCQHFWSAPWTFGQGTKLEIKRT | X | + (Complete blocking) | + (Complete blocking) | + (Complete blocking) | inhibited as effectively as by the parental murine mAb | slightly reduced ability to inhibit spheroid growth | 0.47% |
| J1-65D variant 9: humanised/de-immunised J1-65D: J1-65D_VL_3 + J1-65D_VH_1 (antibody, V domains shown) VH: QVQLVQSGAELKKPGSSVKVSCKASGYTFTDYEMHWVRQAPGQGLEWMGAIQPGGGGTAYNQKFKGRVTLTADKSTSTAYMELSSLRSEDTAVYYCTRRGYDDYPFAYWGQGTLVTVSSASTKGP VL: DIQMTQSPSSLSASVGDRVTITCRASGNIHNYLAWYQQKPGKAPKLLIYNAKTLADAVPSRFSGSGSGTDYTLTISSLQPEDFATYYCQHFWSAPWTFGQGTKLEIKRT | X | + (Complete blocking) | + (Complete blocking) | + (Complete blocking) | inhibited as effectively as by the parental murine mAb | most comparable to the parental mAb | 0% |
| J1-65D variant 5: humanised/de-immunised J1-65D: J1-65D_VL_2 + J1-65D_VH_1 (antibody, V domains shown) VH: QVQLVQSGAELKKPGSSVKVSCKASGYTFTDYEMHWVRQAPGQGLEWMGAIQPGGGGTAYNQKFKGRVTLTADKSTSTAYMELSSLRSEDTAVYYCTRRGYDDYPFAYWGQGTLVTVSSASTKGP VL: DIQMTQSPSSLSASVGDRVTITCRASGNIHNYLAWYQQKPGKAPKLLIYNAKTLADAVPSRFSGSGSGTDYTLTISSLQPEDFATYYCQHFWSAPWTFGGGTKLEIKRT | X | + (Complete blocking) | + (Complete blocking) | + (Complete blocking) | inhibited as effectively as by the parental murine mAb | most comparable to the parental mAb | 0% |
